Assay results from the RNAGym collection of RNA variant scans (doi:10.1073/pnas.2313332121).

B1: TPR t1 (parent)
chain: GACCAAUCUGCCCUCAGAGCUCGAGAACAUCUUCGGAUGCAGAGGAGGCAGGCUUCGGUGGCGCGAUAGCGCCAACGUCCUCAACCUCCAAUGCAUCCCACCACAUGAUGAUGCCUGAAGAGCCUUGGUUUUUUG

Variants of: B1
Assay: polymerase ribozyme fitness, log enrichment relative to wild type (log ratio); higher = more active; in vitro selection for triplet polymerase activity
Procedure, shortened: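 Genotype fitness is the logarithm of its enrichment divided by wild-type enrichment, using inverse-variance-weighted averages of replicates. That logarithm is base 2. Enrichment was measured by Illumina sequencing of input and output libraries from one triplicate in vitro selection round, with frozen incubation at −7 °C, on PCR-built, transcribed mutant libraries of each subunit of a heterodimeric triplet polymerase ribozyme, retaining genotypes with ≥10 input reads and ≥1 read per output.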

Row | Variant | polymerase ribozyme fitness (log ratio)
1 | C72U G110A U130A | -1.72
2 | C53U U126G | -1.77
3 | U59C U112A | -0.182
4 | G45U A90C | -1.56
5 | C8A G52U G60C A91U U112A A118C U131C | -1.41
6 | G45U C56U | -1.13
7 | G19A A41U C56G U59A | -5.05
8 | U30A C72G | -6.04
9 | C70U G71A | -1.05
10 | C8G C13U C79A G117A U126A | -0.523
11 | A29U G39U A74U A91U U132A | -4.44
12 | A6G G48U | -0.663
13 | C34G G44A G71A A90G C101U A121U | -6.41
14 | G61U C97G G122U | -3.87
15 | A5U C12A U21G C49A C72G | -2.35
16 | C12U U21A G35A A74G | -4.28
17 | G25A G44U G52U C62U A105G U112A | -7.09
18 | C8A C34A A37U C104U | -1.95
19 | G71U U81G C114A | -5.63
20 | C22G G47U | -4.11
21 | G17A G47U U54C G71C G77U G117C | -8.04
22 | G51A C123G | -0.157
23 | A95C A119U | -1.28
24 | G52A C104U | 0.136

Row | Variant | polymerase ribozyme fitness (log ratio)
25 | C11G A27U G36A G58A | -3.1
26 | C102U U109G | -5.46
27 | A2U A74U C82U | -3.62
28 | A24C U38G C89U G113U | -6.49
29 | A5G C85G | -2.35
30 | G19C C79A C89A | -4.61
31 | A66G C76A | -1.89
32 | G17U G45C C62U | -4.56
33 | A43C U54C G58A C86A | -3.78
34 | G45U A50U C53A C114U | -3.7
35 | C62A C85A | -2.47
36 | C8U C76A A118G | -0.712
37 | G57A G58A | -0.357
38 | C15A A29U C73U C115U U131A | -2.29
39 | A46G C56U G110U U116A | -2.84
40 | C8A U21C A83G G117A | -1.39
41 | C56G G135C | -0.404
42 | U106A C114A | -1.93
43 | U7C G48U A91U G113U G117A | -7.92
44 | A41U G63A C101A G113A A118U | -4.42
45 | C12G G71U G77A | -0.248
46 | A16G A18C U54G | -0.225
47 | U38G C56A G69U | -1.9
48 | U7C C34A G35U C56U C94A G110C | -7.29

Row | Variant | polymerase ribozyme fitness (log ratio)
49 | G45C U55A A95U C114U | -3.85
50 | G10A A74G A90U G107U C115U | -7.83
51 | C62G G63A | -3.83
52 | G61C G107U | -7.35
53 | G44A C101G U133C | -2.92
54 | C13A C70U | -2.36
55 | G42U G69C | -2.39
56 | A5C U112A | 1.05
57 | C11A G47U C56A C86A U106G | -3.84
58 | C3U A74U U106G G110A A119G | -4.14
59 | A6U C11G G48U C82G C85U | -0.874
60 | G42C G113C | -2.1
61 | A5G C13U C70U C94G | -1.73
62 | G39A C40U | -1.56
63 | C8A C13G | -0.0841
64 | G71A G107A C114U | -4.4
65 | C12U U54G U55A G61A G110A A118C U129A | -6.68
66 | C13U A68G C73U U112G | -3.26
67 | C8A A43G C70U | -2.74
68 | C11U G122A G128C U131C | -0.489
69 | U54G A108U | -5.9
70 | C99A G110U | -4.34
71 | G48U G135C | -1.03
72 | G60C U129G | -1.43

Row | Variant | polymerase ribozyme fitness (log ratio)
73 | C12U C40U C86U C94G U130A | -3.47
74 | U30G C56G U106A U125A | -2.32
75 | U7C C12U U106A C115U G127U | -1.03
76 | C70A C94U | -1.23
77 | G10U C82U | -0.583
78 | G60A C73A A91C G113U | -3.43
79 | A37C G45U G51U C73U C124G | -3.87
80 | C13G A105U U112C | -2.47
81 | G60U U112C | 1
82 | A50U C72U U96A U112A | -1.9
83 | C89A C94U U116A | -5.8
84 | G42A G44A C62U G63A U112G G120C | -5.64
85 | C70A G77A A90G | -1.37
86 | U32A G61A C123G | -1.69
87 | C98U U126C | -1.99
88 | C11A G42C A118G | -3.71
89 | G39A C56A G71C C124A | -5.6
90 | G45U U54A | -1.35
91 | C12G A43C G48A | -2.3
92 | U81A C89A | -2.06
93 | G23A G113C | -5.19
94 | G113C U129A | -3.5
95 | C70A A108U C124A | -5.58
96 | C114A C115G G122C G127U | -5.32

Row | Variant | polymerase ribozyme fitness (log ratio)
97 | U7G C70U A105G | -3.6
98 | C20G C89G C98A G120C | -2.55
99 | U9A G44U | -0.143
100 | C11A G17C | -4.25
101 | C22G G52U A111C | -3.81
102 | G10U C70U U78C C82G | -2.45
103 | A43C G45U C73A A91U G93A U112A G128C | -5.37
104 | G45U C64A A111U U133A | -5.34
105 | A27U A83U | -3.7
106 | U9G G47C C80U | -3.21
107 | G36A U92A C115U | -4.93
108 | C12U A46C A100G | -3.74
109 | U9G A66C C104U | -0.809
110 | U21A C56U C62U C85G | -3.76
111 | G48A C49U C56A A100U | -2.11
112 | C13A A103U U109A U125A U131G | -6.73
113 | G45C G110C | -5.03
114 | G42C A50C | -2.31
115 | A5U C28U C72A U78C | -1.78
116 | C12A G63C | -1.33
117 | C13A C94A | -2.07
118 | G63A A66U | -2.44
119 | U9G G10U C70G U109G | -6.73
120 | C49G A84U G110C | -5.43

Row | Variant | polymerase ribozyme fitness (log ratio)
121 | A5C G120C | 0.663
122 | C13U G69A | -2.03
123 | C72U A83U A90G C114G | -1.45
124 | C12G U21G A111U | -3.89
125 | C79G A121C | 0.144
126 | U30C G71A | -2.58
127 | C53A C89U U131G | 0.265
128 | G51C G135U | -4.93
129 | C12A C115U | -1.21
130 | A119U G120U | -0.548
131 | U21A C104U G117A G120U | -3.67
132 | A29U G127U | -3.66
133 | G42C A111G | -1.3
134 | U81C U87C A100U | -1.38
135 | G113A C114G | -1.96
136 | C79A C88A | -1.22
137 | C11A G36A A50G G113C | -4.17
138 | C8U A27G G42U C56A A74C C89U A111C | -5.47
139 | G48A C89G A95G | -3.06
140 | U9A G110U | -0.815
141 | C56U C79U G113C | -2.44
142 | C11A G45C C62U | -2.56
143 | U38C G63U G77C U131G | -3.41
144 | G17A C72U C114U | -5.33

Row | Variant | polymerase ribozyme fitness (log ratio)
145 | G51A C86U C94G G120C | -6.29
146 | C4G C13A G60A A66G C85A A121C | -2.37
147 | G48U U59A G60U C79U U92G G122A C123A | -5.96
148 | C89A G110U U132C | -4.16
149 | G45U U78C C79A C123A U126C | -3.45
150 | G48U C72G U96C | -1.54
151 | C85G G120A | -1.01
152 | U54A G71U | -0.0584
153 | A37U G42A | -2.01
154 | U132G | -2.28
155 | G17A G44A | -3.41
156 | C79G U131C | -1.28
157 | U21G A95C | -2.54
158 | G17A G52U | -4.1
159 | G42C G117A | -2.18
160 | U38C A46G | -3.03
161 | A50C C72U | -0.602
162 | G17A G36C | -3.9
163 | U21A A46G C114G | -3.92
164 | G35A G58A U78A C104U | -4.33
165 | C15U A43U A84C | -2.66
166 | C49A A105C A118G U130A | -3.62
167 | C13U G52U C85U | -2.32
